Reference: patent US20210340273A1 (INHLBRX, published 2021)
Read-outs that look alike come from different tables or passages of the source.

T1: human 5T4 (trophoblast glycoprotein), endogenous on the cell surface (human, UniProt Q13641 32-420)
T1 construct: also called TPBG; 5T4 oncofetal antigen
T1 sequence: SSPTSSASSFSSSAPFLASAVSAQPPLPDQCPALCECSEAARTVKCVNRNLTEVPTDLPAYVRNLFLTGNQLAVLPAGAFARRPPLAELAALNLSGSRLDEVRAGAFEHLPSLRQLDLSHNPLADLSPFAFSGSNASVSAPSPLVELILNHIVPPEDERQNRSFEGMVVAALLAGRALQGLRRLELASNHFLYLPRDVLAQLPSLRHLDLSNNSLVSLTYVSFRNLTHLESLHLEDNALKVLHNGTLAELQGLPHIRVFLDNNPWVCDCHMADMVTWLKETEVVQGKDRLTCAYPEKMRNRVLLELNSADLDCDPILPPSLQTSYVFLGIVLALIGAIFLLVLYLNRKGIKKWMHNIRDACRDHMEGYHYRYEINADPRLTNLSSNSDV


What was measured:
[1] = molecular target: T1, human 5T4 (trophoblast glycoprotein), …; test: flow cytometry (FL4H median), sdAb-Fc titrated on 5T4-positive T47D cells
Experimental: (§1) Specificity and relative affinity were assessed for purified sdAb-Fcs on 5T4-expressing cells. Binding of 5T4-sdAb-Fc fusion proteins was assessed by flow cytometry using 5T4-expressing cells. A titration series of the fusion protein was incubated with the 5T4-expressing cell lines (approximately 2.5×10⁴ to 5×10⁴ cells/well) for 30 minutes at 4 degrees Celsius in FACS Buffer (PBS 1% BSA, 0.1% NaN₃ pH 7.4) in 96 well plates. Following three wash steps in FACS buffer, an APC-conjugated anti-human Fcγ specific secondary antibody (Jackson ImmunoResearch) was added and incubated for 30 minutes at 4 degrees Celsius. Following three additional wash steps in FACS buffer bound antibody was detected via flow cytometry (IQue Intellicyte).
(§2) Humanized variant of the 5T4 sdAbs were tested for their ability to bind 5T4 expressing cells substantially as described in Example 2, and binding was compared to the parental sdAb. 5T4 expressing T47D cells were used in these studies. Results are shown in FIGS. 2A-2F, which confirm binding of the humanized variants. In some cases, binding was increased compared to the parental sdAb.

[2] = molecular target: T1, human 5T4 (trophoblast glycoprotein), …; test: as above; remark: listed apart in the source
Experimental: as §1, §2

Binder | EC50 (read off the curve) [1] [nM] | binding result [1] | other results
hz12E9v4 sdAb-Fc (Fc fusion, Humanized variant of 12E9, linked to a human Fc; not shown: human Fc) EVQLVESGGGEVQPGGSLRLSCAASRRPFSSKTMAWFRQAPGKEREFVAAVRWIGGATRYTESVKGRFTISRDNAKNTVYLQMSSLRAEDTAVYYCAAGQAWGTKFTDYSDWGQGTLVTVKP | ~0.2 |  | 
hz12E9v6 sdAb-Fc (Fc fusion, Humanized variant of 12E9, linked to a human Fc; not shown: human Fc) EVQLVESGGGEVQAGGSLRLSCAASRRPFSSKTMAWFRQTPGKEREFVAAVRWIGGATRYAESVKGRFTISRDNAKNTVYLQMSSLRAEDTAVYYCAAGQAWGTKFTDYSDWGQGTLVTVKP |  | binds | 
hz12E9v1 sdAb-Fc (Fc fusion, Humanized variant of 12E9, linked to a human Fc; not shown: human Fc) EVQLVESGGGEVQPGGSLRLSCAASRRPFSSKTMAWFRQAPGKGREFVAAVRWIGGATRYAESVKGRFTISRDNAKNTLYLQMSSLRAEDTAVYYCAAGQAWGTKFTDYSDWGQGTLVTVKP |  | binds | 
hz12E9v2 sdAb-Fc (Fc fusion, Humanized variant of 12E9, linked to a human Fc; not shown: human Fc) EVQLVESGGGEVQPGGSLRLSCAASRRPFSSKTMAWFRQAPGKEREFVAAVRWIGGATRYAESVKGRFTISRDNAKNTLYLQMSSLRAEDTAVYYCAAGQAWGTKFTDYSDWGQGTLVTVKP | ~0.2 |  | 
hz12E9v3 sdAb-Fc (Fc fusion, Humanized variant of 12E9, linked to a human Fc; not shown: human Fc) EVQLVESGGGEVQPGGSLRLSCAASRRPFSSKTMAWFRQAPGKEREFVAAVRWIGGATRYAESVKGRFTISRDNAKNTVYLQMSSLRAEDTAVYYCAAGQAWGTKFTDYSDWGQGTLVTVKP | ~0.2 |  | 
hz14B5v4 sdAb-Fc (Fc fusion, Humanized variant of 14B5, linked to a human Fc; not shown: human Fc) EVQLVESGGGEVQPGGSLRLSCAASERPFGTYAMGWFRQAPGKERDLVAAVSRNGGASQYAESVKGRFTISRDNAKNTVYLQMSSLRAEDTAVYYCAARSAAYSRSSEVYTGKDEYYYWGQGTLVTVKP |  | binds | 
hz14B5v5 sdAb-Fc (Fc fusion, Humanized variant of 14B5, linked to a human Fc; not shown: human Fc) EVQLVESGGGEVQPGGSLRLSCAASERPFGTYAMGWFRQAPGKERDLVAAVSRNAGASQYAESVKGRFTISRDNAKNTMYLQMSSLRAEDTAVYYCAARSAAYSRSSEVYTGKDEYYYWGQGTLVTVKP |  | binds | 
hz14B5v11 sdAb-Fc (Fc fusion, Humanized variant of 14B5, linked to a human Fc; also called hz14B511; not shown: human Fc) EVQLVESGGGEVQAGDSLTLSCAVSERPFGTYAMGWFRQAPGRERDLVAAVSRNAGASQYAESVKGRFTISRDNAKNTMYLQMSSLRAEDTAVYYCAARSAAYSRSSEVYTGKDEYYYWGQGTLVTVKP |  |  | EC50 (read off the curve) [2]: ~2 nM
hz14B5v3 sdAb-Fc (Fc fusion, Humanized variant of 14B5, linked to a human Fc; not shown: human Fc) EVQLVESGGGEVQPGGSLRLSCAASERPFGTYAMGWFRQAPGKERDLVAAVSRNGGASQYAESVKGRFTISRDNAKNTMYLQMSSLRAEDTAVYYCAARSAAYSRSSEVYTGKDEYYYWGQGTLVTVKP |  | binds | 
hz14B5v13 sdAb-Fc (Fc fusion, Humanized variant of 14B5, linked to a human Fc; not shown: human Fc) EVQLVESGGGEVQPGGSLRLSCAASERPFGTYAMGWFRQAPGKERETVAAVSRNAGASQYAESVKGRFTISRDNAKNTMYLQMSSLRAEDTAVYYCAARSAAYSRSSEVYTGKDEYYYWGQGTLVTVKP |  |  | EC50 (read off the curve) [2]: ~2 nM
hz14B5v1 sdAb-Fc (Fc fusion, Humanized variant of 14B5, linked to a human Fc; not shown: human Fc) EVQLVESGGGEVQPGGSLRLSCAASERPFGTYAMGWFRQAPGKGRDLVSAVSRNGGASQYAESVKGRFTISRDNAKNTLYLQMSSLRAEDTAVYYCAARSAAYSRSSEVYTGKDEYYYWGQGTLVTVKP |  | binds | 
hz14B5v10 sdAb-Fc (Fc fusion, Humanized variant of 14B5, linked to a human Fc; also called hz14B510; not shown: human Fc) EVQLVESGGGEVQPGGSLRLSCAASERPFGTYAMGWFRQAPGKERDLVAAVSRNGGASQYGESVKGRFTISRDNAKNTMYLQMSSLRAEDTAVYYCAARSAAYSRSSEVYTGKDEYYYWGQGTLVTVKP |  | binds | 
hz14B5v12 sdAb-Fc (Fc fusion, Humanized variant of 14B5, linked to a human Fc; not shown: human Fc) EVQLVESGGGEVQPGGSLRLSCAASERPFGTYAMGWFRQAPGKERDLVAAVSRNAGASQYGESVKGRFSISRDNIKNTMYLQMSSLKPEDTAVYYCAARSAAYSRSSEVYTGKDEYYYWGQGTLVTVKP |  |  | EC50 (read off the curve) [2]: ~2 nM
hz14B5v14 sdAb-Fc (Fc fusion, Humanized variant of 14B5, linked to a human Fc; not shown: human Fc) EVQLVESGGGEVQPGGSLRLSCAASERPFGTYAMGWFRQAPGKEREFVAAVSRNAGASQYAESVKGRFTISRDNAKNTMYLQMSSLRAEDTAVYYCAARSAAYSRSSEVYTGKDEYYYWGQGTLVTVKP |  |  | EC50 (read off the curve) [2]: ~2 nM
hz14B5v7 sdAb-Fc (Fc fusion, Humanized variant of 14B5, linked to a human Fc; not shown: human Fc) EVQLVESGGGEVQPGGSLRLSCAASERPFGTYAMGWFRQAPGKERDLVAAVSRQGGASQYAESVKGRFTISRDNAKNTMYLQMSSLRAEDTAVYYCAARSAAYSRSSEVYTGKDEYYYWGQGTLVTVKP | ~2 |  | 
hz14B5v9 sdAb-Fc (Fc fusion, Humanized variant of 14B5, linked to a human Fc; not shown: human Fc) EVQLVESGGGEVQPGGSLRLSCAASERPFGTYAMGWFRQAPGKERDLVAAVSRNGGASQYGDSVKGRFTISRDNAKNTMYLQMSSLRAEDTAVYYCAARSAAYSRSSEVYTGKDEYYYWGQGTLVTVKP |  | binds | 
hz14B5v15 sdAb-Fc (Fc fusion, Humanized variant of 14B5, linked to a human Fc; not shown: human Fc) EVQLVESGGGEVQPGGSLRLSCAASERPFGTYAMGWFRQAPGKERDLVAAVSRNAGASYYAESVKGRFTISRDNAKNTMYLQMSSLRAEDTAVYYCAARSAAYSRSSEVYTGKDEYYYWGQGTLVTVKP |  |  | EC50 (read off the curve) [2]: ~2 nM
hz14B5v8 sdAb-Fc (Fc fusion, Humanized variant of 14B5, linked to a human Fc; not shown: human Fc) EVQLVESGGGEVQPGGSLRLSCAASERPFGTYAMGWFRQAPGKERDLVAAVSRGGGASQYAESVKGRFTISRDNAKNTMYLQMSSLRAEDTAVYYCAARSAAYSRSSEVYTGKDEYYYWGQGTLVTVKP | ~2 |  | 
hz14B5v6 sdAb-Fc (Fc fusion, Humanized variant of 14B5, linked to a human Fc; not shown: human Fc) EVQLVESGGGEVQPGGSLRLSCAASERPFGTYAMGWFRQAPGKERDLVAAVSRNTGASQYAESVKGRFTISRDNAKNTMYLQMSSLRAEDTAVYYCAARSAAYSRSSEVYTGKDEYYYWGQGTLVTVKP |  | binds | 
hz16G10v1 sdAb-Fc (Fc fusion, Humanized variant of 16G10, linked to a human Fc; not shown: human Fc) EVQLVESGGGEVQPGGSLRLSCAASGRPFSSSAMGWFRQAPGKGRETVSAVSRNGGSSYYAESVKGRFTISRDNAKNTLYLQMSSLRAEDTAVYYCAARSAAYSRSSETYTEKHDYTYWGQGTLVTVKP | ~2 |  | 
hz16G10v6 sdAb-Fc (Fc fusion, Humanized variant of 16G10, linked to a human Fc; not shown: human Fc) EVQLVESGGGEVQPGGSLRLSCAASGRPFSSSAMGWFRQAPGKERETVAAVSRNAGSSYYAESVKGRFTISRDNAKNTVYLQMSSLRAEDTAVYYCAARSAAYSRSSETYTEKHDYTYWGQGTLVTVKP |  | binds | 
hz16G10v9 sdAb-Fc (Fc fusion, Humanized variant of 16G10, linked to a human Fc; not shown: human Fc) EVQLVESGGGEVQPGGSLRLSCAASGRPFSSSAMGWFRQAPGKERETVAAVSRNGGSSYYAESVKGRFTISRDNDKNTVYLQMSSLRAEDTAVYYCAARSAAYSRSSETYTEKHDYTYWGQGTLVTVKP |  | binds | 
hz16G10v5 sdAb-Fc (Fc fusion, Humanized variant of 16G10, linked to a human Fc; not shown: human Fc) EVQLVESGGGEVQPGGSLRLSCAASGRPFSSSAMGWFRQAPGKERETVAAVSRGGGSSYYAESVKGRFTISRDNAKNTVYLQMSSLRAEDTAVYYCAARSAAYSRSSETYTEKHDYTYWGQGTLVTVKP | ~5 |  | 
hz16G10v2 sdAb-Fc (Fc fusion, Humanized variant of 16G10, linked to a human Fc; not shown: human Fc) EVQLVESGGGEVQPGGSLRLSCAASGRPFSSSAMGWFRQAPGKERETVAAVSRNGGSSYYAESVKGRFTISRDNAKNTLYLQMSSLRAEDTAVYYCAARSAAYSRSSETYTEKHDYTYWGQGTLVTVKP | ~2 |  | 
hz16G10v8 sdAb-Fc (Fc fusion, Humanized variant of 16G10, linked to a human Fc; not shown: human Fc) EVQLVESGGGEVQPGGSLRLSCAASGRPFSSSAMGWFRQAPGKERETVAAVSRNGGSSYYADFVKGRFTISRDNAKNTVYLQMSSLRAEDTAVYYCAARSAAYSRSSETYTEKHDYTYWGQGTLVTVKP |  | binds | 
hz16G10v4 sdAb-Fc (Fc fusion, Humanized variant of 16G10, linked to a human Fc; not shown: human Fc) EVQLVESGGGEVQPGGSLRLSCAASGRPFSSSAMGWFRQAPGKERETVAAVSRQGGSSYYAESVKGRFTISRDNAKNTVYLQMSSLRAEDTAVYYCAARSAAYSRSSETYTEKHDYTYWGQGTLVTVKP | ~9 |  | 
hz16G10v3 sdAb-Fc (Fc fusion, Humanized variant of 16G10, linked to a human Fc; not shown: human Fc) EVQLVESGGGEVQPGGSLRLSCAASGRPFSSSAMGWFRQAPGKERETVAAVSRNGGSSYYAESVKGRFTISRDNAKNTVYLQMSSLRAEDTAVYYCAARSAAYSRSSETYTEKHDYTYWGQGTLVTVKP | ~2 |  | 
